# Reference: IntAct's records for PubMed 31515488
# B1: Retinoic acid receptor RXR-gamma (Homo sapiens), P48443 (parent)
# chain: MYGNYSHFMKFPAGYGGSPGHTGSTSMSPSAALSTGKPMDSHPSYTDTPVSAPRTLSAVGTPLNALGSPYRVITSAMGPPSGALAAPPGINLVAPPSSQLNVVNSVSSSEDIKPLPGLPGIGNMNYPSTSPGSLVKHICAICGDRSSGKHYGVYSCEGCKGFFKRTIRKDLIYTCRDNKDCLIDKRQRNRCQYCRYQKCLVMGMKREAVQEERQRSRERAESEAECATSGHEDMPVERILEAELAVEPKTESYGDMNMENSTNDPVTNICHAADKQLFTLVEWAKRIPHFSDLTLEDQVILLRAGWNELLIASFSHRSVSVQDGILLATGLHVHRSSAHSAGVGSIFDRVLTELVSKMKDMQMDKSELGCLRAIVLFNPDAKGLSNPSEVETLREKVYATLEAYTKQKYPEQPGRFAKLLLRLPALRSIGLKCLEHLFFFKLIGDTPIDTFLMEMLETPLQIT
# partner: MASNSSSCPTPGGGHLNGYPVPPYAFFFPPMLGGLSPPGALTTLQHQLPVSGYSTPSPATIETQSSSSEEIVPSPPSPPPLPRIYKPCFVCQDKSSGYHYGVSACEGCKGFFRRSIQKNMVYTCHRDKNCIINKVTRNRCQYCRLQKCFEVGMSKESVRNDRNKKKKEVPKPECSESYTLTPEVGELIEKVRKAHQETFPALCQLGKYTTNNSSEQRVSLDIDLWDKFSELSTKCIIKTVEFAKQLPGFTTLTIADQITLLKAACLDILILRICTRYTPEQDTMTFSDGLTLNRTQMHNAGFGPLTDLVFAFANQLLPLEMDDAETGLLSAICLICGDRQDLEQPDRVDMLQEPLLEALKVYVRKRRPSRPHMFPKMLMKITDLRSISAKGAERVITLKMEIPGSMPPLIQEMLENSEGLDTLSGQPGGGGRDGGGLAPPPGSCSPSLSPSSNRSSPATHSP
# B2: Kelch-like protein 40 (Homo sapiens), Q2TBA0 (parent)
# chain: MALGLEQAEEQRLYQQTLLQDGLKDMLDHGKFLDCVVRAGEREFPCHRLVLAACSPYFRARFLAEPERAGELHLEEVSPDVVAQVLHYLYTSEIALDEASVQDLFAAAHRFQIPSIFTICVSFLQKRLCLSNCLAVFRLGLLLDCARLAVAARDFICAHFTLVARDADFLGLSADELIAIISSDGLNVEKEEAVFEAVMRWAGSGDAEAQAERQRALPTVFESVRCRLLPRAFLESRVERHPLVRAQPELLRKVQMVKDAHEGRITTLRKKKKGKDGAGAKEADKGTSKAKAEEDEEAERILPGILNDTLRFGMFLQDLIFMISEEGAVAYDPAANECYCASLSNQVPKNHVSLVTKENQVFVAGGLFYNEDNKEDPMSAYFLQFDHLDSEWLGMPPLPSPRCLFGLGEALNSIYVVGGREIKDGERCLDSVMCYDRLSFKWGESDPLPYVVYGHTVLSHMDLVYVIGGKGSDRKCLNKMCVYDPKKFEWKELAPMQTARSLFGATVHDGRIIVAAGVTDTGLTSSAEVYSITDNKWAPFEAFPQERSSLSLVSLVGTLYAIGGFATLETESGELVPTELNDIWRYNEEEKKWEGVLREIAYAAGATFLPVRLNVLCLTKM
# B3: Proteasome inhibitor PI31 subunit (Homo sapiens), Q92530 (parent)
# chain: MAGLEVLFASAAPAITCRQDALVCFLHWEVVTHGYFGLGVGDQPGPNDKKSELLPAGWNNNKDLYVLRYEYKDGSRKLLVKAITVESSMILNVLEYGSQQVADLTLNLDDYIDAEHLGDFHRTYKNSEELRSRIVSGIITPIHEQWEKANVSSPHREFPPATAREVDPLRIPPHHPHTSRQPPWCDPLGPFVVGGEDLDPFGPRRGGMIVDPLRSGFPRALIDPSSGLPNRLPPGAVPPGARFDPFGPIGTSPPGPNPDHLPPPGYDDMYL
# partner: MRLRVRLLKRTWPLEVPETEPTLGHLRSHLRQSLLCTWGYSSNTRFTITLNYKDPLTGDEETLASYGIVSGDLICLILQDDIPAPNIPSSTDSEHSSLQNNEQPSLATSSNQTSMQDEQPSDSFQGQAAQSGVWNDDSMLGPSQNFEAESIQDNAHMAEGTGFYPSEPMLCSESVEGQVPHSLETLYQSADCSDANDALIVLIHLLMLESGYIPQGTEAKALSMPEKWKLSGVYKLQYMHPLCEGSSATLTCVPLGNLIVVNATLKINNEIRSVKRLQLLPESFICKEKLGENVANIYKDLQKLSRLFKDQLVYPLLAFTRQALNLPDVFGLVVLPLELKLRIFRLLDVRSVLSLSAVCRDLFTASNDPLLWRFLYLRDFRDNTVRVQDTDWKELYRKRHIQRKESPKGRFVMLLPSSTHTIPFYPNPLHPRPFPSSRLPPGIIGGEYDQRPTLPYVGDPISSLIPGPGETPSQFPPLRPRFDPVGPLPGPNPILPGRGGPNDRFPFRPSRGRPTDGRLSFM
# B4: Microtubule-associated protein RP/EB family member 1 (Homo sapiens), Q15691 (parent)
# chain: MAVNVYSTSVTSDNLSRHDMLAWINESLQLNLTKIEQLCSGAAYCQFMDMLFPGSIALKKVKFQAKLEHEYIQNFKILQAGFKRMGVDKIIPVDKLVKGKFQDNFEFVQWFKKFFDANYDGKDYDPVAARQGQETAVAPSLVAPALNKPKKPLTSSSAAPQRPISTQRTAAAPKAGPGVVRKNPGVGNGDDEAAELMQQVNVLKLTVEDLEKERDFYFGKLRNIELICQENEGENDPVLQRIVDILYATDEGFVIPDEGGPQEEQEEY
# B5: Splicing factor 45 (Homo sapiens), Q96I25 (parent)
# chain: MSLYDDLGVETSDSKTEGWSKNFKLLQSQLQVKKAALTQAKSQRTKQSTVLAPVIDLKRGGSSDDRQIVDTPPHVAAGLKDPVPSGFSAGEVLIPLADEYDPMFPNDYEKVVKRQREERQRQRELERQKEIEEREKRRKDRHEASGFARRPDPDSDEDEDYERERRKRSMGGAAIAPPTSLVEKDKELPRDFPYEEDSRPRSQSSKAAIPPPVYEEQDRPRSPTGPSNSFLANMGGTVAHKIMQKYGFREGQGLGKHEQGLSTALSVEKTSKRGGKIIVGDATEKDASKKSDSNPLTEILKCPTKVVLLRNMVGAGEVDEDLEVETKEECEKYGKVGKCVIFEIPGAPDDEAVRIFLEFERVESAIKAVVDLNGRYFGGRVVKACFYNLDKFRVLDLAEQV
# partner: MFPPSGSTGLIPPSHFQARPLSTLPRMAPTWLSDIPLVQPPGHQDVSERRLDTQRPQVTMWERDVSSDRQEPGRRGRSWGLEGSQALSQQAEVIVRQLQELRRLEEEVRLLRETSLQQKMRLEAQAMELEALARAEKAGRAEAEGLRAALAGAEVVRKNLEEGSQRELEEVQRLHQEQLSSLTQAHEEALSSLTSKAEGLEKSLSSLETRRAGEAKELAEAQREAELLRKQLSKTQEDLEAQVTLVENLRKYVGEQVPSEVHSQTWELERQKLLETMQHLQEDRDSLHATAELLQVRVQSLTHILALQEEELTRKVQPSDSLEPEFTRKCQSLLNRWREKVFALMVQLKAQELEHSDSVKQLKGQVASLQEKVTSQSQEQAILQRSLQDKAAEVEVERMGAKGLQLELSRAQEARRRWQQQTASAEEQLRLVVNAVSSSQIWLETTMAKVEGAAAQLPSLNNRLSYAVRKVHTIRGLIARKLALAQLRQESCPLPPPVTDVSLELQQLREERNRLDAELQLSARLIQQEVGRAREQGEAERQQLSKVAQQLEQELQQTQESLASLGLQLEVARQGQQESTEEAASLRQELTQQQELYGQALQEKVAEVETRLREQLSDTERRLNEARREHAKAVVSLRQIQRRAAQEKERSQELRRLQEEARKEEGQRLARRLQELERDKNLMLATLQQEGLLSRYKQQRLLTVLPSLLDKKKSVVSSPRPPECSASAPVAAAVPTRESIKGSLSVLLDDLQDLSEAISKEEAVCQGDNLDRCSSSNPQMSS
# B6: Endothelial transcription factor GATA-2 (Homo sapiens), P23769 (parent)
# chain: MEVAPEQPRWMAHPAVLNAQHPDSHHPGLAHNYMEPAQLLPPDEVDVFFNHLDSQGNPYYANPAHARARVSYSPAHARLTGGQMCRPHLLHSPGLPWLDGGKAALSAAAAHHHNPWTVSPFSKTPLHPSAAGGPGGPLSVYPGAGGGSGGGSGSSVASLTPTAAHSGSHLFGFPPTPPKEVSPDPSTTGAASPASSSAGGSAARGEDKDGVKYQVSLTESMKMESGSPLRPGLATMGTQPATHHPIPTYPSYVPAAAHDYSSGLFHPGGFLGGPASSFTPKQRSKARSCSEGRECVNCGATATPLWRRDGTGHYLCNACGLYHKMNGQNRPLIKPKRRLSAARRAGTCCANCQTTTTTLWRRNANGDPVCNACGLYYKLHNVNRPLTMKKEGIQTRNRKMSNKSKKSKKGAECFEELSKCMQEKSSPFSAAALAGHMAPVGHLPPFSHSGHILPTPTPIHPSSSLSFGHPHPSSMVTAMG
# partner: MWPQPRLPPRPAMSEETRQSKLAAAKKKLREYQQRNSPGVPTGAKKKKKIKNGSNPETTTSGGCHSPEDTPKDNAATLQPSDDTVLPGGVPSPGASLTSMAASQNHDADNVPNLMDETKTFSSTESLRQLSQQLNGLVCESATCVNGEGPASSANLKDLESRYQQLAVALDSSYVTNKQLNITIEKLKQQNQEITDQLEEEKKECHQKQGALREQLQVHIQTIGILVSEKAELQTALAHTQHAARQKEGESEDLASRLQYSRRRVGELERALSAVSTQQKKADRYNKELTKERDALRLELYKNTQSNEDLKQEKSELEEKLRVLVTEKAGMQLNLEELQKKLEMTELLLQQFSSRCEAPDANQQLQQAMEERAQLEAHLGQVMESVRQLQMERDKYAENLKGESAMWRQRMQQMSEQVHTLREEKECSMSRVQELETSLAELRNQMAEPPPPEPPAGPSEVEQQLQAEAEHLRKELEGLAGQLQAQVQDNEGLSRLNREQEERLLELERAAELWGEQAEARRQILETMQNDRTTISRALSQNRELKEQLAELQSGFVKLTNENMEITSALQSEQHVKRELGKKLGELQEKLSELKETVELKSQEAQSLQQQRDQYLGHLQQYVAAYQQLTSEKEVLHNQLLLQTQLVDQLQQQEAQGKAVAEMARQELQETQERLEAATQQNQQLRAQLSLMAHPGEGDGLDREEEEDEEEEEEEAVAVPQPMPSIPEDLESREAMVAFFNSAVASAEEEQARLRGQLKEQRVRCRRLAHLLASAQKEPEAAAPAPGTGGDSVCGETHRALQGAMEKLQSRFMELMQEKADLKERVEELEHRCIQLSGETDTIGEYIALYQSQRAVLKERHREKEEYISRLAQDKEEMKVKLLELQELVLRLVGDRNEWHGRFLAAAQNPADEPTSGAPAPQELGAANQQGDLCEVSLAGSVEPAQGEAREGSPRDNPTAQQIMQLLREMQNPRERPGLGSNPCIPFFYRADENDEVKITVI
# Variants of: B1
# Details: with rara_human RARA
row,effect of a mutation on the interaction,Variant
1,with no effect,A86V

# Variants of: B2
# Details: with smip4_human SPMIP4, Q8N865
# Sequence of smip4_human SPMIP4, Q8N865 (Q8N865 whole entry): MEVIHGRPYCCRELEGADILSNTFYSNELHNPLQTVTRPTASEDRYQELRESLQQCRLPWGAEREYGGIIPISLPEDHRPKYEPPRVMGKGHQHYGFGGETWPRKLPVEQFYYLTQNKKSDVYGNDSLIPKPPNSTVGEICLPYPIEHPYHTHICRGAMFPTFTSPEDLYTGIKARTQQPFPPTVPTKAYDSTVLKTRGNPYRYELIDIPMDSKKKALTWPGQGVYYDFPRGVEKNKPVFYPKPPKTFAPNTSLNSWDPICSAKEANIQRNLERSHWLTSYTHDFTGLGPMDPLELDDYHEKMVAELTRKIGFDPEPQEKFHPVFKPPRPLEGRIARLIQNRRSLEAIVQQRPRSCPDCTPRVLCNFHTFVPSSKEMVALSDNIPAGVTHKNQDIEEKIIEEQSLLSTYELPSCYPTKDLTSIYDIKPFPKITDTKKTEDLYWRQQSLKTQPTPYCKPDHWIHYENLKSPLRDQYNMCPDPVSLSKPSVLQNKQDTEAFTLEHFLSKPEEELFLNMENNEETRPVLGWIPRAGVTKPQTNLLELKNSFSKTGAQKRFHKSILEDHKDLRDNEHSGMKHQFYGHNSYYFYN
row,effect of a mutation on the interaction,Variant
1,with no effect,D484N

# Variants of: B3
# Details: with fbx7_human FBXO7, Q9Y3I1
row,effect of a mutation on the interaction,Variant
1,with no effect,V192A

# Variants of: B4
# Details: with mare3_human MAPRE3, Q9UPY8
# Sequence of mare3_human MAPRE3, Q9UPY8 (Q9UPY8 whole entry): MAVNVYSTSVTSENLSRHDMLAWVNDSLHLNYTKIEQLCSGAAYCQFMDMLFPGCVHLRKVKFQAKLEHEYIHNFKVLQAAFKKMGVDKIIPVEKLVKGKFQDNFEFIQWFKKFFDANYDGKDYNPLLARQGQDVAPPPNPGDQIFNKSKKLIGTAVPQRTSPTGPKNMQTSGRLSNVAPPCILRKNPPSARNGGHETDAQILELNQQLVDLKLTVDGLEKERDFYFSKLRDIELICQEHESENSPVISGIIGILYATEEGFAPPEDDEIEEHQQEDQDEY
row,effect of a mutation on the interaction,Variant
1,with no effect,I56V
2,with no effect,N201S

# Variants of: B5
# Details: with cchcr_human CCHCR1, Q8TD31
row,Variant,effect of a mutation on the interaction
1,T224I,with no effect

# Variants of: B6
# Details: with goga2_human GOLGA2, Q08379
row,effect of a mutation on the interaction,Variant
1,with no effect,A164T
